These results are taken from the nanobody polyreactivity screen of Harvey et al. (2022).

The nature of this data set: yeast display, Sf9 membrane polyspecificity reagent, FACS + sequencing; frameworks hold sequencing errors. A digest of the protocol: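 Sorting gates, low and high (top ~1%), were placed on anti-HA fluorescence to track expression and on streptavidin fluorescence to track reagent binding. A clone's polyreactivity label is taken from the gate it came out of. The reagent was 10% biotinylated, detergent-solubilized Sf9 membrane, applied for 1 hour at 4 °C to galactose-induced yeast display cells.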
Take “QVQLVESGGGLVQAGGSLRLSCAASGFTFSDNAMGWYRQAPGKEREFVATIDWSGGSTYYADSVKGRFTISRDNAKNTVYLQMNSLKPDDTAVYYCAATFRYSTSQYLQGYDYWGQGTQVTVSS”: the “polyreactivity (PSR sort gate)” value is listed as “low polyreactivity”. To “QVQLVESGGGLVQAGGSLRLSCAASGFTFSDYAMGSNRQAPGKERELVAAITSRTGTTYYADSVKWRFTISRDNAKNTVYLQMNSLKPEDTAVYYCNKVKFRSQDMDYWGQGTQVTVSS” belongs “high polyreactivity”; to “QVQLVESGGGLVQAGGSLRLSCAASGFTFSFYTMGGYRQAPGTARELVAAISRNGGSTYYADSVKGRFTISRDNAKTTDYFQMNSLKPEDTAVYYCAARARGGDWGSGDYWGQGTQVTVSS”, “high polyreactivity”; to “QVQLVESGGGLVQAGGSLRLSCAASGFTFSGNTMGWSRQAPGKERELVATISRTGGITYYADSVKGRFTISRDNAKNTVYLQMNSLKPEDTAVYYCNRRYYYFVYPDDYWGQGTQVTVSS”, “high polyreactivity”. On to “QVQLVESGGGLVQAGGSLRLSCAASGFTFSGYSMGWYRPAPGKERELVAAITKSGGSTYYADSVKGRFTISRDTAKNTVYLQMNSLKPEDTAVYYCNADVLYTTEGDYWGQGTQVTVSS”, for which the “polyreactivity (PSR sort gate)” value is recorded as “high polyreactivity”. To “QVQLVESGGGLVQAGGSLRLSCAASGFTFSHYAMGWYRQAPGKERELVAAISWGGGSTYYADSVKGRFTISRDNAKNTVYLQMKSLIPEDTAVYYCARDVVYRGYYYGAFDYCGQGTQVTVSS” belongs “low polyreactivity”.

As for “QVQLVESGGGLVQAGGSLRLSCAASGFTFSKYAMGWYRQAPGKERELVAAITSGDDTNYADSVKGRFTISRDNAKNTVYLQMNSLKPEDTAVYYCNAEYTVYYSYWAIGVDYWGQGTQVTVSS”, the “polyreactivity (PSR sort gate)” value was “high polyreactivity”. For the sequence “QVQLVESGGGLVQAGGSLRLSCAASGFTFSKYVKGLYRQAPGKERELVAAISKRGGSTYYADSVKGRFTISRDYAKNTVYLQMNSLKPEDTAVYYCAARYYLEQILEKDYWVQGTQVTVSS”, the “polyreactivity (PSR sort gate)” value is “high polyreactivity”. The same measure for “QVQLVESGGGLVQAGGSLRLSCAASGFTFSLNTMGWYRQAPGKEREFVAAITYRTGRTYYADSVKGRFTISRDNAKNTVYLQMNSLKPDDTAVYYCNAGEHTRWYYWTPTYTTVDYWGLGTQVTVSS”: “low polyreactivity”; for “QVQLVESGGGLVQAGGSLRLSCAASGFTFSLYAMGWYRQAPGKERELVAAISRSGGSTYYADSVKGRFTISRDNAKKTVYLQMNSLKPEDTAVYYCNAPYSVSSIRYDYWGQGTQVTVSS”: “high polyreactivity”; for “QVQLVESGGGLVQAGGSLRLSCAASGFTFSNYAMGWYRQAPGKEREFVAAISGTGGSTYYADSVKGRFTISRDNAKNTVYLQMNSLKPEDTAVYYCARRRTYPPGRYYYWGQGTQVTVSS”: “high polyreactivity”.

In the case of “QVQLVESGGGLVQAGGSLRLSCAASGFTFSPNAMGWYRQAPGKERELVAAIDWNGGSTYYADSVKGRFTISRDNAKNTVYLQMNSLKPEDTAVYYCNADWVYWQYLTSFVTFDYWGQGTQVTVSS”, the “polyreactivity (PSR sort gate)” value is listed as “low polyreactivity”. The same measure for “QVQLVESGGGLVQAGGSLRLSCAASGFTFSPYAMGWYRQAPGKERELVAAISSSGGSTYYADSVKGRFTISRDNAKNTVYLQMNSLKPEDTAVYYCATQGTRRPGKFYYWGQGTQVTVSS”: “high polyreactivity”; for “QVQLVESGGGLVQAGGSLRLSCAASGFTFSPYTMGWYRQAPGKEWELVATIRYDGTSTYYADSVKGRFTISRDNAKNTVFLQMNSLKPEDTEVYYCAADIWRVYSTIYYWGQGTQVTVSS”: “low polyreactivity”; for “QVQLVESGGGLVQAGGSLRLSCAASGFTFSPYVMGWYRQAPGKERELVATITAGGSSTFYADSVKGRFTISRDNAKNTVYLQMNSLKPEDTAVYYCNTVSPSFVYESTSDRFDYWGQGTQVTVSS”: “low polyreactivity”. The same measure for “QVQLVESGGGLVQAGGSLRLSCAASGFTFSQNAMGWYRQAAGKERELVAAITGDGGSTYYADSVKGRFTISRDNAKNTVFLQMNSLKPEDTAVYYCAADPSPYSAFGIYWFRYDYWGQGTQVTVSS”: “low polyreactivity”; for “QVQLVESGGGLVQAGGSLRLSCAASGFTFSRNAMGWYIQAPGKERELVAAISQSGGSTYYADSVKGRFTISRDNAKNTVYLQMNSLKPEDTAVYYCAAQSFAQYGWRYGYWGQGTQVTVSS”: “high polyreactivity”; for “QVQLVESGGGLVQAGGSLRLSCAASGFTFSRYAMGWYRQAPGKERELVAAISRSGGRTSYADSVKGRFTISRDNSKNTVFLQMNSLKPEDTAVYYCAARTATGSSSSIGYGYWGQGTQVTVSS”: “high polyreactivity”.

Take “QVQLVESGGGLVQAGGSLRLSCAASGFTFSSNAMGWFRQAPGKERELVAAISFSGTRTYYADSVKGRFTISRDNAKKTVYLQMNSLKPEDTAVYYCAAGRHYGPLSGRTKGMEYWGQGTQVTVSS”: the “polyreactivity (PSR sort gate)” value is listed as “high polyreactivity”.

Regarding “QVQLVESGGGLVQAGGSLRLSCAASGFTFSSNAMGWYRQAPGKERELVAAIRSDGVRTYYADSVKGRFTISRDNAKNTVYLQMNSLKPEDTAVYYCNSVSDVRIGAGDYWGQGTQVTVSS”, the “polyreactivity (PSR sort gate)” value is given as “high polyreactivity”.

As to “QVQLVESGGGLVQAGGSLRLSCAASGFTFSSYAMGWYRQAPGKERELVAAITYRGGSTYYADSVKGRFTISRDNAKNTVYLQMNSLKPEDTAVYYCAARWGYRMYWGQGTQVTVSS”, the “polyreactivity (PSR sort gate)” value is “high polyreactivity”. The same measure for “QVQLVESGGGLVQAGGSLRLSCAASGFTFSTNAMGWYRQAPGKERELVAAISPDGGTYYADSVKGRFTISRDNAKNTVYLQMNSLKPEDTAVYYCAAVWGRGVWDLYDYWGQGTQVTVSS”: “low polyreactivity”. The same measure for “QVQLVESGGGLVQAGGSLRLSCAASGFTFSTYAMGWYRQAPGKESELVAAITRSGGSTYYADSVKGRFTISRDIEKNTVYLQMNSLKQEDTAVYYCATDASFYDPDLYPYGYDYWGQGTQVTVSS”: “high polyreactivity”. In the case of “QVQLVESGGGLVQAGGSLRLSCAASGFTFSVNAMGWYRQAPGKERELVADIDWSGGSTYYADSVKGRFTISRDNAKNTVYLQMNSLKPEDTAVYYCSADYYSPDSYVQGSSGEYWGQGTQVTVSS”, the “polyreactivity (PSR sort gate)” value is given as “low polyreactivity”. The same measure for “QVQLVESGGGLVQAGGSLRLSCAASGFTFSWYAMGWYRQAPGKEMELVAAIDDGGSTYYADSVKGRFTISRDNAKNTVYLQMNSLKPEDTAVYYCNARGYGTLNVRRERMDYWGQGTQVTVSS”: “high polyreactivity”; for “QVQLVESGGGLVQAGGSLRLSCAASGFTFSWYAMGWYRQAPGKERELVAAISSAGNTNYADSVKGRFTISRDNAKNTVYLQMNSLKPEDTAVYYCAKRDYWGQGTQVTVSS”: “high polyreactivity”. The same measure for “QVQLVESGGGLVQAGGSLRLSCAASGFTFSWYAMGWYRQAPGKERELVAAITSGGGTNYADSVKGRFTISRDNAKNTVYLQMNSLKPEDTAVYYCAARGRWFYYLDDYWGQGTQVTVSS”: “low polyreactivity”; for “QVQLVESGGGLVQAGGSLRLSCAASGFTFSYNAMGWYRQAPGKERELVAAITYSAGNTYYADSVKGRFTISRDNAKNTVYLQMNSLKPEDTAVYYCNAVTKHRAITNMDYWGQGTQVTVSS”: “high polyreactivity”; for “QVQLVESGGGLVQAGGSLRLSCAASGFTFSYNTMGWYRQAPGKERELVAAISGSGARTYYADSVKGRFTISRDNAKNSVYLQMNSLKPEDTAVYYCNAKYGYDSEARIVKPVRYDYWGQGTQVTVSS”: “high polyreactivity”. The same measure for “QVQLVESGGGLVQAGGSLRLSCAASGFTFSYYAMGWYIQAPGKERELVATITWGGGRTYYADSVKGRFTISRDNAKNTVYLQMNSLKPEDTAVYYCNAERTYFQYYRNYDYWGQGTKVTVSS”: “low polyreactivity”; for “QVQLVESGGGLVQAGGSLRLSCAASGFTFSYYAMGWYRQAPGKERELVAAISWNGGSTYYADSVKGRFTISRDNAKNTVYLQMNSLKPEDTAVNYCAADSLLYYYDTGYEYWGQGTQVTVSS”: “high polyreactivity”. For the sequence “QVQLVESGGGLVQAGGSLRLSCAASGFTFSYYAMGWYRQAPGKERELVARISFSGTRTYYADSVKGRFTISRDNAKNTVYLEMNSLKPEDTAVYYCAARFGYVGITARYDYWGQGTQVTVSS”, the “polyreactivity (PSR sort gate)” value is given as “high polyreactivity”. To “QVQLVESGGGLVQAGGSLRLSCAASGFTFSYYAMGWYRQAPGKERELVATITWDGGSTYYADSVKGRFTISRDNAKNTVYLQMNSLKPEDTAVYYCAAQYYRWQTKYDYWGQGTQVTVSS” belongs “high polyreactivity”; to “QVQLVESGGGLVQAGGSLRLSCAASGFTFSYYVMGLYRQAPGKERELVAAITSGGSTYYADSVKGRFTISRDNAKNTVYLQMNSLKPEDTAVYYCNARTYSRVTRQTYRYRPYDYWGQGTQVTVSS”, “high polyreactivity”. Consider “QVQLVESGGGLVQAGGSLRLSCAASGFTFTAYAMGWSRQAPGKERELVAAISSGGSTYYADSVKGRFTISRDNAKNTVYLQMNSLKPEDTAVYYCAAVGVYTVKREYWGQGTQVTVSS”, for which the “polyreactivity (PSR sort gate)” value was “low polyreactivity”. To “QVQLVESGGGLVQAGGSLRLSCAASGFTFTAYAMGWYRQAPGKERELVAAISRSGGSTSYADSVKGRFTISRDNAKNTVYLQMNSLKPEDTAVYYCAAGRVGWGQGTQVTVSS” belongs “high polyreactivity”; to “QVQLVESGGGLVQAGGSLRLSCAASGFTFTGNAMGWYRQAPGKERELVAAITSGGRTYYADSVKGRFTISRDNAKNTVYLQMNSLIPEDTAVYYCNTAGLKRYVTFYYWGQGTQVTVSS”, “high polyreactivity”; to “QVQLVESGGGLVQAGGSLRLSCAASGFTFTMNAMGWYRQAPGKERELVAGISSGGSTNYADSVKGRFTLSRDNEKNTVYLQMNSLKPEDTAVYYCAADRGYVWRYDYWGQGTQVTVSS”, “low polyreactivity”.

Take “QVQLVESGGGLVQAGGSLRLSCAASGFTFTNYVMGWYRQAPGKETELVAAIRRSGDSTYYADSVKGRFTISRDNAKNTVYLQMNSLKPEATAVYYCNAVAYGRTYDYWGQGTQVTVSS”: the “polyreactivity (PSR sort gate)” value is given as “high polyreactivity”.

Consider “QVQLVESGGGLVQAGGSLRLSCAASGFTFTRYAMGWYRQAPGKERELVAAISSRGGSTNYADSVKGRFTISRDNAKNTVYLQMNSLKPEDTAVYYCAAEYYRLRYEYDYWGQGTQVTVSS”, for which the “polyreactivity (PSR sort gate)” value is “high polyreactivity”.
